This test addresses WT murine C3b (mouse) (UniProt P01027). As to the kind of experiment: SPR; BIAcore S200; murine C3b (WT or Asn1115) amine coupled to a CM5 chip (930 ± 10 RU); analytes in 2-fold dilution series in HBST (10 mM HEPES, 150 mM NaCl, 0.005% Tween-20, pH 7.4), 30 μl/min for 200 s; steady-state model. A general note: Surface plasmon resonance follows binding to a sensor surface in real time, without labels.
Chain of full-length mouse serum-derived FH (P06909 19-1234): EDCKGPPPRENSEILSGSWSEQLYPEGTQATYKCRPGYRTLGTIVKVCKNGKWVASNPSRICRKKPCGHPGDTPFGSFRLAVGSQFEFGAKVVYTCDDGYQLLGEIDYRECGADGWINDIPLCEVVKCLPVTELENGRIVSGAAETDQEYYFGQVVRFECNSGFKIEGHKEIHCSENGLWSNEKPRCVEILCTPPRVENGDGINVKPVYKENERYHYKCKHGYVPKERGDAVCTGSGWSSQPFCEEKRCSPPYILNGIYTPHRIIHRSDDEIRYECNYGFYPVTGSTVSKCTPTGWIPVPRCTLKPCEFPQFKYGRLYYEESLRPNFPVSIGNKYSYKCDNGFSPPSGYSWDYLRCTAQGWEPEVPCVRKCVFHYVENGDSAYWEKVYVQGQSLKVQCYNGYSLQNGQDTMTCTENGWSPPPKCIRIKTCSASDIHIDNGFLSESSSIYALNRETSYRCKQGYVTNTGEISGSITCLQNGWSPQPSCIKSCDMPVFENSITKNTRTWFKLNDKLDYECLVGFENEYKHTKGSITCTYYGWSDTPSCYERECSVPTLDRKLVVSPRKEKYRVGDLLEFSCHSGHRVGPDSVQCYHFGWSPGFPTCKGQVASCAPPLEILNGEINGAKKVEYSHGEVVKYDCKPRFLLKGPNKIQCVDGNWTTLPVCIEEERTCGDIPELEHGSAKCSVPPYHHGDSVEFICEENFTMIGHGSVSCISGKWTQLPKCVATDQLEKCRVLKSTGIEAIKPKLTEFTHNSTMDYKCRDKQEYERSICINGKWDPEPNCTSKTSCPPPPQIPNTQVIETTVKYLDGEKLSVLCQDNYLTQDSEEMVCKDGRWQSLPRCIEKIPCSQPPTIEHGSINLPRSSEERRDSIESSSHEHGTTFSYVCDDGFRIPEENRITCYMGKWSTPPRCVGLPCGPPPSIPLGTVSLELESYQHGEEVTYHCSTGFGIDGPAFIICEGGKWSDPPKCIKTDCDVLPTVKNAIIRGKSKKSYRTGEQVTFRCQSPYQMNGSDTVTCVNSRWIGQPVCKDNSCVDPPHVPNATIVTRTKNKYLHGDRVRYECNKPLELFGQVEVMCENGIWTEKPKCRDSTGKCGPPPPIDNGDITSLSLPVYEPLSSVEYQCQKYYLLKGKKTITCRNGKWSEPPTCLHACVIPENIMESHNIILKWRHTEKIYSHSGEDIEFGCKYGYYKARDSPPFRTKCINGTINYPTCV
In turn, “recombinant human FH SCRs 19–20 (domain or fragment)” gave a Kd of 9.4 µM.
For “recombinant murine Crry SCRs 1–5 (domain or fragment)”, the Kd amounted to 3.2 µM.
To “full-length mouse serum-derived FH (from UniProt P06909 19-1234) (natural protein)” belongs 1.4 µM.
To “recombinant murine FH SCRs 1–5 (domain or fragment)” belongs 2.9 µM.

By Kd is commonly meant the concentration at which binding is half-saturated.

Values taken from paper PMC6391106.
